Measurements: the Human Domainome abundance scans (Beltran et al. 2025)
± gives the uncertainty stated by the source.

B1: Ras GTPase-activating protein 1, residues 281 to 341; numbered along this chain, P20936 (parent)
chain: RRRVRAILPYTKVPDTDEISFLKGDMFIVHNELEDGWMWVTNLRTDEQGLIVEDLVEEVGR

Variants of: B1
Assay: abundance fitness (aPCA) (normalised: wild type 0, dead -1); higher = more abundant; growth selection in yeast, the domain comes from the species named
Settings: Homo sapiens

Variant	abundance fitness
I7T	-0.088 ± 0.047
I7E	-0.551 ± 0.1
I7Y	-0.366 ± 0.032
I7S	-0.236 ± 0.027
I7R	-0.055 ± 0.034
W39F	-0.034 ± 0.021
W39K	-0.118 ± 0.037
W39Y	-0.009 ± 0.023
W39V	-0.195 ± 0.021
W39L	-0.063 ± 0.022
W39E	0.003 ± 0.032
W39C	-0.187 ± 0.021
W39G	-0.67 ± 0.024
W39R	-0.03 ± 0.023
G36I	-0.88 ± 0.051
G36F	-0.951 ± 0.065
G36N	-0.149 ± 0.028
G36C	-0.664 ± 0.035
G36D	-0.613 ± 0.038
G24R	-0.672 ± 0.039
G24L	-0.885 ± 0.054
G24W	-0.545 ± 0.057
G24I	-0.933 ± 0.061
G24D	-0.07 ± 0.031

Variant	abundance fitness
G24V	-0.751 ± 0.036
G24N	-0.133 ± 0.033
G24K	-0.981 ± 0.16
E58G	-0.156 ± 0.034
E58V	-0.201 ± 0.035
E58M	-0.326 ± 0.061
E58W	-0.106 ± 0.061
E58K	-0.156 ± 0.063
I51V	0.023 ± 0.026
I51F	-0.826 ± 0.045
I51R	-0.786 ± 0.044
I51P	-0.912 ± 0.087
R1A	-0.129 ± 0.047
R1I	0.072 ± 0.034
R1Q	-0.503 ± 0.39
V52S	0.013 ± 0.025
V52Q	0.045 ± 0.056
V52A	0.072 ± 0.029
V52N	0.015 ± 0.028
L43K	-0.206 ± 0.065
L43H	-0.612 ± 0.047
L43V	-0.044 ± 0.029
L43Y	-0.35 ± 0.033
L43G	-0.694 ± 0.041

Variant	abundance fitness
K12S	-0.077 ± 0.027
K12A	-0.029 ± 0.032
K12I	-1.01 ± 0.062
K12M	-0.188 ± 0.053
K12D	-0.806 ± 0.056
K12C	-0.101 ± 0.029
K12H	-0.184 ± 0.033
L55W	-0.165 ± 0.041
L55A	0.032 ± 0.032
L55K	0.027 ± 0.051
L55M	0.005 ± 0.057
K23C	-0.16 ± 0.023
K23M	-0.149 ± 0.033
K23T	-0.058 ± 0.024
K23E	0.006 ± 0.041
K23L	-0.232 ± 0.027
T41V	-0.289 ± 0.028
T41M	-0.362 ± 0.064
T41W	-0.378 ± 0.063
T41S	-0.19 ± 0.026
T41D	-0.862 ± 0.053
T41F	-0.88 ± 0.05
E47W	-0.94 ± 0.11
E47F	-0.841 ± 0.04

Variant	abundance fitness
E47V	-0.375 ± 0.027
E47K	-0.23 ± 0.049
M26D	0.012 ± 0.03
M26W	-0.104 ± 0.048
M26C	-0.042 ± 0.027
M26S	-0.125 ± 0.028
M26T	-0.03 ± 0.038
M26A	-0.177 ± 0.033
G60F	-0.211 ± 0.07
G60A	-0.071 ± 0.12
G60C	-0.081 ± 0.067
G60P	-0.023 ± 0.16
G60Q	-0.328 ± 0.18
L33G	-0.082 ± 0.027
L33F	-0.042 ± 0.026
L33W	-0.136 ± 0.042
Q48S	-0.022 ± 0.025
Q48W	-0.32 ± 0.062
Q48C	-0.043 ± 0.028
G49V	-0.949 ± 0.049
G49H	-0.825 ± 0.053
G49I	-0.874 ± 0.048
E53V	-0.053 ± 0.028
E53Q	-0.034 ± 0.074

Variant	abundance fitness
E53G	0.03 ± 0.027
E53Y	-0.121 ± 0.027
E53D	-0.045 ± 0.03
E53K	0.01 ± 0.054
E53W	-0.203 ± 0.055
F27K	-0.965 ± 0.13
F27Y	-0.834 ± 0.045
F27C	-0.485 ± 0.029
F27I	-0.864 ± 0.044
V56S	-0.73 ± 0.036
V56F	-0.953 ± 0.047
V56N	-0.874 ± 0.056
E32C	-0.058 ± 0.029
E32P	-0.35 ± 0.044
E32K	0.01 ± 0.054
E32Y	-0.03 ± 0.029
E32N	-0.07 ± 0.03
R3L	-0.09 ± 0.028
R3Y	-0.045 ± 0.031
R3P	-0.51 ± 0.04
R3G	-0.383 ± 0.028
R3S	-0.136 ± 0.025
R3K	-0.01 ± 0.064
R3I	-0.073 ± 0.031

Variant	abundance fitness
V59H	-0.124 ± 0.03
V59M	-0.027 ± 0.047
V59C	-0.041 ± 0.028
V59Q	-0.055 ± 0.05
V59L	-0.066 ± 0.027
V40D	-0.846 ± 0.048
V40Q	-1.01 ± 0.21
V40N	-0.987 ± 0.061
V40K	-0.682 ± 0.1
V40A	0.002 ± 0.033
T11W	-0.213 ± 0.049
T11R	-0.126 ± 0.028
T11N	-0.026 ± 0.029
T11V	0.017 ± 0.029
T11K	-0.13 ± 0.067
T11C	-0.028 ± 0.028
T11Q	-0.097 ± 0.084
T11E	-0.108 ± 0.089
I19S	-0.878 ± 0.042
I19P	-0.989 ± 0.11
I19D	-0.941 ± 0.063
I19C	-0.451 ± 0.028
I19R	-0.833 ± 0.05
I19A	-1.14 ± 0.12

Variant	abundance fitness
P9A	-0.026 ± 0.039
P9W	-0.805 ± 0.095
P9T	-0.076 ± 0.038
P9L	-0.772 ± 0.048
P9K	-0.232 ± 0.07
E18K	-0.457 ± 0.11
E18L	-0.35 ± 0.039
E18P	-1.04 ± 0.12
E18Y	-0.513 ± 0.037
E18I	-0.35 ± 0.036
E18H	-0.452 ± 0.041
E18N	-0.809 ± 0.051
E18M	-0.42 ± 0.082
E18T	-0.222 ± 0.038
S20H	-0.977 ± 0.08
S20M	-1.09 ± 0.2
N42P	-0.874 ± 0.091
N42L	-0.296 ± 0.034
N42A	-0.436 ± 0.033
N42V	-0.963 ± 0.049
N42C	-0.1 ± 0.03
N42K	-0.61 ± 0.083
N42S	-0.235 ± 0.026
